Experimental data from PMC4809600, “The Influence of Chronic Wound Extracts on Inflammatory Cytokine and Histatin Stability” (PLoS ONE, 2016).

How the values were obtained:
[1] = Stability in PBS, capillary zone electrophoresis; format: physicochemical; conditions: 1 mg/ml in PBS mixed 1:1 with PBS, 37°C, 96 h, CZE, UV 200 nm, ratio to imidazole internal standard, 0 h = 100%
Protocol: To determine the stability of the different peptides in CWE, histatins and cytokines were dissolved in PBS at 1 mg/ml. Histatins and cytokines were incubated in a 1:1 ratio with (i) PBS, (ii) CWE in PBS, or (iii) CWE in PBS containing PIC, in a total volume of 25 μl. Imidazole (Sigma-Aldrich) was added as an internal standard, with a final concentration of 100 μg/ml. The mixtures were incubated at 37°C, and samples were taken at 0, 24, 48, 72 and 96 h. For histatins containing mixtures, additional samples were taken after 2, 4, 8 and 16 h of incubation.
The samples were analyzed with a BioFocus 2000 capillary zone electrophoresis system (Bio-Rad Laboratories, Hercules, CA, USA) equipped with an uncoated fused-silica capillary of internal diameter 50 μm and a length of 24 cm. Samples were loaded by pressure injection (5 psi/sec). Separation was performed at 10 kV (cathode at the detector side) at 20°C using 0.1 M phosphate buffer (pH 2.5) as electrolyte and monitored continuously at 200 nm. Peaks were quantified with the BioFocus Integrator software. In order to quantify the percentage of intact peptides remaining after incubation with CWE, the ratios of histatins, rhIL-6 or rhCXCL8 to internal standard was set at 100% at 0h, and the ratios at the other incubation time points were related to this.

[2] = Stability in chronic wound extracts (CWE), capillary zone electrophoresis; format: in vitro ADME, human; conditions: 37°C, CZE, 0 h = 100%; for Percentage intact, CWE 24h / Percentage intact, CWE 48h / Percentage intact, CWE 72h / Percentage intact, CWE 96h: 1 mg/ml in PBS mixed 1:1 with CWE (1 mg/ml protein, pool of 5 donors) in PBS, UV 200 nm, ratio to imidazole
Summary of the method: (§1)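 Peptides or cytokines (1 mg/ml stock) mixed 1:1 with PBS or pooled chronic-wound extract (1 mg/ml protein, three pools of five donors), ±protease inhibitor cocktail, at 37 °C for up to 96 h. Analyzed by capillary zone electrophoresis (pH 2.5 phosphate, 200 nm), with peak ratio to imidazole standard relative to 0 h as % intact.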

[3] = Stability in CWE with protease inhibitor cocktail (PIC), capillary zone electrophoresis; format: in vitro ADME, human; conditions: 1 mg/ml in PBS mixed 1:1 with CWE (1 mg/ml protein, pool of 5 donors) in PBS containing PIC (final 1:140 v/v), 37°C, CZE, ratio to imidazole, 0 h = 100%
Summary of the method: as §1

Substance: CXCL8 CS: rhCXCL8 from Cell Systems, Cat nr. CS-C1069, CXCL8 (1–77)
- Percentage intact, PBS 96h ([1]; experiment 1 of 3): 91.5892%
- Percentage intact, PBS 96h ([1]; experiment 2 of 3): 91.4833%
- Percentage intact, PBS 96h ([1]; experiment 3 of 3): 87.1812%
- Percentage intact, CWE 24h ([2]; experiment 1 of 3): 88.8666%
- Percentage intact, CWE 24h ([2]; experiment 2 of 3): 92.8064%
- Percentage intact, CWE 24h ([2]; experiment 3 of 3): 96.6818%
- Percentage intact, CWE 48h ([2]; experiment 1 of 3): 87.3559%
- Percentage intact, CWE 48h ([2]; experiment 2 of 3): 86.1407%
- Percentage intact, CWE 48h ([2]; experiment 3 of 3): 89.0325%
- Percentage intact, CWE 72h ([2]; experiment 1 of 3): 83.3251%
- Percentage intact, CWE 72h ([2]; experiment 2 of 3): 83.9414%
- Percentage intact, CWE 72h ([2]; experiment 3 of 3): 84.6704%
- Percentage intact, CWE 96h ([2]; 96 h, experiment 1 of 3): 78.0414%
- Percentage intact, CWE 96h ([2]; 96 h, experiment 2 of 3): 80.0263%
- Percentage intact, CWE 96h ([2]; 96 h, experiment 3 of 3): 80.2041%
- Starting material remaining intact after 96 h in CWE ([2]; 1 mg/ml in PBS mixed 1:1 with CWE (1 mg/ml protein, pools of 5 donors), 96 h, mean of 3 independent experiments): 79%
- Percentage intact, CWE + PIC 24h ([3]; experiment 1 of 3): 104.747%
- Percentage intact, CWE + PIC 24h ([3]; experiment 2 of 3): 99.4146%
- Percentage intact, CWE + PIC 24h ([3]; experiment 3 of 3): 99.4369%
- Percentage intact, CWE + PIC 48h ([3]; experiment 1 of 3): 98.6704%
- Percentage intact, CWE + PIC 48h ([3]; experiment 2 of 3): 94.4506%
- Percentage intact, CWE + PIC 48h ([3]; experiment 3 of 3): 91.0713%
- Percentage intact, CWE + PIC 72h ([3]; experiment 1 of 3): 96.1244%
- Percentage intact, CWE + PIC 72h ([3]; experiment 2 of 3): 88.7106%
- Percentage intact, CWE + PIC 72h ([3]; experiment 3 of 3): 87.6839%
- Percentage intact, CWE + PIC 96h ([3]; experiment 1 of 3): 87.7388%
- Percentage intact, CWE + PIC 96h ([3]; experiment 2 of 3): 86.0248%
- Percentage intact, CWE + PIC 96h ([3]; experiment 3 of 3): 85.3459%
